Reference: patent publication US20030059769, “High affinity nucleic acid ligands to lectins” (published 2003)
Where a chain is given by its changes, count along the chain named.

How the values were obtained:
L-selectin (LS-Rg) [1] = molecular target: T1, L-selectin (LS-Rg) (Homo sapiens, UniProt P14151 P14151:39-332); experiment: inhibition; sialyl-LewisX competition ELISA; conditions: tags: human IgG2 Fc fusion; chain copies: 2 (stated dimer)
T1 sequence: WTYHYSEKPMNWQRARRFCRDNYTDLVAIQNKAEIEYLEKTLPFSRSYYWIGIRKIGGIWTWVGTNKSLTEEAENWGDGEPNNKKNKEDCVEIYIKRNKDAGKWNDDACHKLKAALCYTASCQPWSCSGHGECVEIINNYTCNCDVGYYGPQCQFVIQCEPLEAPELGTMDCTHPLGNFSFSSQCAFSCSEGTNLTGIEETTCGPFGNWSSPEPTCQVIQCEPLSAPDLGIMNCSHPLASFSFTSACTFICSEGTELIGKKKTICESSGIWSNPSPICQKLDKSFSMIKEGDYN
Method: SLe^X-BSA (Oxford GlycoSystems, Oxford, UK) in 1X PBS, without CaCl₂, and MgCl₂, (GIBCO/BRL) was immobilized at 100 ng/well onto a microtiter plate by overnight incubation at […]. The wells were blocked for 1 h with the assay buffer consisting of 20 mM HEPES, 111 mM NaCl, 1 mM CaCl₂, 1 mM MgCl₂, 5 mM KCl, 8.9 mM NaOH, final pH 8, and 1% globulin-free BSA (Sigma). The reaction mixtures, incubated for 90 min with orbital shaking, contained 5 nM L-Selectin-Rg, a 1:100 dilution of anti-human IgG-peroxidase conjugate (Sigma), and 0 - 50 ruM of competitor in assay buffer. After incubation, the plate was washed with BSA-free assay buffer to remove unbound chimera-antibody complex and incubated for 25 min with O-phenylenediamine dihydrochloride peroxidase substrate (Sigma) by shaking in the dark at 22°0 C. Absorbance was read at 450 nm on a Bio-Kinetics Reader, Model EL312e (Bio-Tek Instruments, Laguna Hills, Calif.). Values shown represent the mean ±s.e from duplicate, or triplicate, samples from one representative experiment.
Sialyl Lewis^X is the minimal carbohydrate ligand bound by selecting.

[2] = molecular target: T2, L-selectin on PBMC / lymphocytes (Homo sapiens, UniProt P14151 P14151:39-372); experiment: flow; competition with FITC-LD201T1
T2 sequence: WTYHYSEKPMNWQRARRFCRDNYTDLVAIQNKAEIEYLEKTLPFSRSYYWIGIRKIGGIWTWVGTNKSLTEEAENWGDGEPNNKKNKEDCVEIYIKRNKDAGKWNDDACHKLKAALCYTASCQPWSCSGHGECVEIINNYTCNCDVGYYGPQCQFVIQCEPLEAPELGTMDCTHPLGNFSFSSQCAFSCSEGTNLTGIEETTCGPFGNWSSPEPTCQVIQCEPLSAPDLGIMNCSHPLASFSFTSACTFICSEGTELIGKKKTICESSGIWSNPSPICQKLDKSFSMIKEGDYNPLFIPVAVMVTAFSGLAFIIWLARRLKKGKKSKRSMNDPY
Method: Binding of evolved ligands to L-selectin presented in the context of a cell surface was tested by flow cytometry experiments with human lymphocytes. Briefly, peripheral blood mononuclear cells (PBMC) were purified on histoplaque by standard techniques. […] Fluorescent staining of cells was quantified on a FACSCaliber fluorescent activated cell sorter (Becton Dickinson, San Jose, Calif.). The affinity of the 2′-F competitor was calculated from the flurorescence inhibition curves.
The ability of full length 2′-F ligands to bind to L-selectin presented in the context of a cell surface was tested by competition-flow cytometry experiments with human peripheral blood lymphocytes.

soluble L-selectin [3] = molecular target: T3, soluble L-selectin (Homo sapiens, UniProt P14151 P14151:39-332); experiment: filter; 37 C; conditions: tags: R&D Systems
T3 sequence: T1 sequence
Method: (§1) Unless otherwise indicated, all materials used in the 2′-F RNA SELEX against the L-selectin/IgG2 chimera, LS-Rg, were identical to those of Examples 7, paragraph A and 13, paragraph A. SHMCK-140 buffer, used for all SELEX and binding experiments, was 1 mM CaCl₂, 1 mM MgCC₂, 140 mM NaCl, 5 mM KCl. and 20 mM HEPES, pH 7.4. A soluble form of L-selectin, corresponding to the extracellular domains, was purchased from R&D Systems and used for some nitrocellulose filter binding experiments.
(§2) As described in SELEX Patent Applications, a nitrocellulose filter partitioning method was used to determine the affinity of RNA ligands for LS-Rg and for other proteins. Filter discs (nitrocellulose/cellulose acetate mixed matrix, 0.45 μm pore size, Millipore) were placed on a vacuum manifold and washed with 3 ml of SHMCK 140 buffer under vacuum. Reaction mixtures, containing ³²P labeled RNA pools and unlabeled LS-Rg, were incubated in SHMCK 140 for 10-20 min at 37° C., and then immediately washed with 3 ml SHMCK 140. The filters were air-dried and counted in a Beckman LS6500 liquid scintillation counter without fluor. Alternatively, binding studies employed 96 well micro-titer manifolds essentially as described in Example 13, paragraph E.
(§3) These calculations assume two ligand binding sites per chimera.

[4] = molecular target: T4, Wheat germ agglutinin (WGA) (Triticum vulgare, UniProt P10968 P10968:27-197); experiment: filter; HBSS, room temperature; conditions: tags: E Y Laboratories
T4 sequence: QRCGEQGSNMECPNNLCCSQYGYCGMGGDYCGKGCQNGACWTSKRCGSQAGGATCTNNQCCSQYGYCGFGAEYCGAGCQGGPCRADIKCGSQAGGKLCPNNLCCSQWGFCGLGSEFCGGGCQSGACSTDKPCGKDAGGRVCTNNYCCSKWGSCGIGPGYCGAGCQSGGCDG
Method: As described in SEIEX patent applications, a nitrocellulose filter partitioning method was used to determine the affinity of RNA ligands for WGA and for other proteins. Filter discs (nitrocellulose/cellulose acetate mixed matrix, 0.45 μm pore size, Millipore; or pure nitrocellulose, 0.45 μm pore size, Bio-Rad) were placed on a vacuum manifold and washed with 4 ml of HBSS buffer under vacuum. Reaction mixtures, containing ³²P labeled RNA pools and unlabeled WGA, were incubated in HBSS for 10 min at room temperature, filtered, and then imnmediately washed with 4 ml HBSS. The filters were air-dried and counted in a Beckman LS6500 liquid scintillation counter without fluor.
The dissociation constants for representative members of families 1-9 and orphan ligands were determined by nitrocellulose filter binding experiments and are listed in Table 3. These calculations assume one RNA ligand binding site per WGA monomer.

L-selectin (LS-Rg) [5] = molecular target: T1, L-selectin (LS-Rg); experiment: filter; 37 C; conditions: tags: human IgG2 Fc fusion
Method: as §1, §2, §3

soluble L-selectin [6] = molecular target: T3, soluble L-selectin; experiment: filter; binding undetectable, 37 C; conditions: tags: R&D Systems
soluble L-selectin [7] = molecular target: T3, soluble L-selectin; experiment: filter; 37 C, soluble L-selectin; conditions: tags: R&D Systems; label: 32P
Method: as §1, §2

[8] = molecular target: T2, L-selectin on PBMC / lymphocytes; experiment: flow; half-saturation; conditions: label: 5' fluorescein
From the text: A variety of monomeric nucleic acid ligands and multivalent Complexes have been examined in flow cytometry.

[9] = chain copies: 2 (stated homodimer)
[10] = chain copies: homodimer, label: 32P

TAGCCATTCACCATGGCCCCTTCCTACGTATGTTCTGCGGGTGGCTTA (ssDNA) [LD174T1] gave an IC50 (L-selectin (LS-Rg) [1]) of roughly 3 nM.

B1: LF1618 (ssRNA)
RNA: GGGAGGACGAUGCGGUUAGCCUACACUCUAGGUUCAGUUUUCGAAUCUUCCACCGCAGACGACUCGCCCGA
modifications: 2'-F C and U [all C and U 2'-F; W in the 3' fixed region (cagacgacucgcccga) = A]
Work on B1 yielded a Kd [2] of 25 nM.

B2: LF1712 (ssRNA)
RNA: GGGAGGACGAUGCGGGAUCUUAAGCAGUGCGUUAUUCGAACUAUCCCAGACGACUCGCCCGA
modifications: 2'-F C and U
Binder B2 has a Kd (soluble L-selectin [3]) of 0.065 nM.

B3: WGA ligand 6.23 (ssRNA)
RNA: GGGAAAAGCGAAUCAUACACAAGACUCGGCGGGAAUCGAAAGUGUACUGAAUUAGAACGGUGGGCCUGCUCAUCGUGCUCCGCCAGAGACCAACCGAGAA
modifications: 2'-NH2 C and U
B3 showed a Kd [4, 9] of 824 nM.

B4: LF1808 (ssRNA)
RNA: GGGAGGACGAUGCGGCAUGGUCUUAGGCGACGCGUUUAUAUCGAGUCACCAUGCUCAGACGACUCGCCCGA
modifications: 2'-F C and U
B4 was tested, and the Kd (L-selectin (LS-Rg) [5]; chain copies: 2 (stated dimer)) was 0.6 nM.

B5: LF1815 (ssRNA)
RNA: GGGAGGACGAUGCGGCCAUCGGUCUUGGGCAACGCGUUUUCGAGUUACCUAUGGUCAGACGACUCGCCCGA
modifications: 2'-F C and U
B5 gave a Kd (soluble L-selectin [3]) of 0.18 nM.

B6: LF1521 (ssRNA)
RNA: GAGGACGAUGCGGGCUCUUAAGCAACGUGUUAUCAAGUUAGCCCAGACGACUCGCCCGA
modifications: 2'-F C and U
B6 showed a Kd (soluble L-selectin [3]) of 0.25 nM.

For AGCTGGCGGTACGGGCCGTGCACCCACTTACCTGGGAAGTGAGCTTA (ssDNA) [LD196T1], the IC50 (L-selectin (LS-Rg) [1]) was roughly 3 nM.

B7: LF1614 (ssRNA)
RNA: GGGAGGACGAUGCGGCAAACAAGCUCAAAUGACGUGUUUUUCAAGUCCUUGUUGUCAGACGACUCGCCCGA
modifications: 2'-F C and U
B7 showed a Kd (L-selectin (LS-Rg) [5]; chain copies: 2 (stated dimer)) of 0.17 nM.

B8: LF1816 (ssRNA)
RNA: GGGAGGACGAUGCGGUGCUAUUCUUAAGCGGCGUGUAAAUCAAGCUAGAUCAUCGUCAGACGACUCGCCCGA
modifications: 2'-F C and U
B8: no binding (soluble L-selectin [6]).

B9: LF1528 (ssRNA)
RNA: GGGAGGACGAUGCGGUUAGGUCAAUGAUCUUAGUUUUCGAUUCGUCAGACGACUCGCCCGA
modifications: 2'-F C and U
B9: no binding (soluble L-selectin [6]).

B10: WGA ligand 6.9 (ssRNA)
RNA: GGGAAAAGCGAAUCAUACACAAGACUCGGCGGGAACGAAGUGUGUGAGUAACGAUCACUUGGUACUAAAAGCCCGCUCCGCCAGAGACCAACCGAGAA
modifications: 2'-NH2 on all C and U
B10 gave a Kd [4, 10] of 396 nM.

B11: LF1708 (ssRNA)
RNA: GGGAGGACGAUGCGGAUCUUAAGCAGCGCGUCAAUCGAGCUAACCCAGACGACUCGCCCGAG
modifications: 2'-F on all C and U
Binder B11 has a Kd (L-selectin (LS-Rg) [5]; chain copies: dimer, label: 32P) of 70 nM.

B12: LF1514 (ssRNA)
RNA: GGGAGGACGAUGCGGUACCUCAAAUUGCGUGUUUUCAAGCAGUAUCAGACGACUCGCCCGA
modifications: 2'-F C and U
Binder B12 has a Kd [2] of 0.8 nM.

B13: LF1516 (ssRNA)
RNA: GGGAGGACGAUGCGGUCAUUCUCUAAAAAAGUAUUCCGUACCUCCACAGACGACUCGCCCGA
modifications: 2'-F on all C and U
B13 was tested, and the Kd (soluble L-selectin [7]) was 1.3 nM.

B14: LF1536 (ssRNA)
RNA: GGGAAGACGAUGCGGCGCUCAAAUAAUGCGUUAAUCGAAUUCGCCCAGACGACUCGCCCGA
modifications: 2'-F C and U
In the case of B14, the Kd (soluble L-selectin [3]) is reported as 0.22 nM.

B15: LF1817 (ssRNA)
RNA: GGGAGGACGAUGCGGUGCUUAAACAACGCGUGAAUCGAGUUCAUCCACUCCUCCUCAGACGACUCGCCCGA
modifications: 2'-F on all C and U
In the case of B15, the Kd (soluble L-selectin [7]) is reported as 2.3 nM.

B16: LD201T1 branched dimer (ssDNA)
DNA: TAGCCAAGGTAACCAGTACAAGGTGCTAAACGTAATGGCTTCGGCTTAC
modifications: two copies linked 3' ends via five-unit ethylene glycol spacers to 3'-3' symmetric linker
With B16 the EC50 [8] was roughly 0.15 nM.

B17: LF1513 (ssRNA)
RNA: GGGAGGACGAUGCGGGCUCUUCAGCAACGUGUUAUCAAGUUAGCCCAGACGACUCGCCCGA
modifications: 2'-F C and U
B17 showed a Kd [2] of 4 nM.

B18: LF1613 (ssRNA)
RNA: GGGAGGACGAUGCGGUGCUAUUCUUAAGCGGCGUGUUUUUCAAGCCAAUAUCAUCAGACGACUCGCCCGA
modifications: 2'-F C and U
B18 showed a Kd [2] of 0.2 nM.

B19: LF1527 (ssRNA)
RNA: GGGAGGACGAUGCGGACCCUCAAAUAGCGUGCAUUUCAAGCUGGUCAGACGACUCGCCCGA
modifications: 2'-F C and U
In the case of B19, the Kd (L-selectin (LS-Rg) [5]; chain copies: 2 (stated dimer)) is reported as 0.32 nM.

B20: LF1529 (ssRNA)
RNA: B19 RNA with G27A, C32U, A33C, C41U
modifications: 2'-F C and U
With B20 the Kd (L-selectin (LS-Rg) [5]; chain copies: 2 (stated dimer)) was 0.6 nM.

B21: WGA ligand 11.6 (ssRNA)
RNA: GGGAAAAGCGAAUCAUACACAAGACUGGGGAGCAGGAUAUGAGAUGUGCGGGGCAAUGGAGUCGUGACGAACCGCUCCGCCAGAGACCAACCGAGAA
modifications: 2'-NH2 on all C and U
With B21 the Kd [4, 10] was 702 nM.

B22: WGA ligand 6.5 (ssRNA)
RNA: GGGAAAAGCGAAUCAUACACAAGAGUCCCUAGGGAUGCAACGGGCAGCAUUCGCAUAGGAGUAAUCGGAGGUCGCUCCGCCAGAGACCAACCGAGAA
modifications: 2'-NH2 C and U
For B22, the Kd [4, 9] was 678 nM.
